Source: patent CN113336845A (LANZHOU VETERINARY RES INST CAAS, dated 2021)

Molecular target: T1, 融合蛋白3AN (FMDV 3A epitope fused to PRRSV N protein)
T1 construct: also called 3AN融合蛋白; 3AN蛋白抗原
Assay: ELISA, biotin-labelled C8 detects 3AN captured by 3A24

B1: 猪繁殖与呼吸综合征病毒核衣壳蛋白的猪源单个B细胞抗体C8 (antibody, V domains shown)
VH: GLVQPGGSLRLSCVASGFTFSSYIVTWVRQSPGKGLEWLAGTGVGEYALYYRNSVRGRFTLSRDNSQNTAYLQMNSLRVEETGRYFCRRGAAESVDLWGPGVEVVVSS
VL: QEPAMSVSLGGTVTLTCAFSSGSVTRSHWPSWFQLTPGQPPRTLIVSTDSRPTGVPSRFSGAISGYKAALTITGAQPEDEADYVCGVYFTFTKRPFGGGTHLTVLG
notes: also called C8单抗; 单克隆抗体C8
  binding result: binds
